Consider 38 sequences from the supplement of paper PMC7877785.

A short description of this data set: self-splicing fitness, log relative to wild type (ln ratio); higher = more splicing; Tetrahymena group I intron in knt gene, E. coli kanamycin selection, DiMSum; sequences stand for … in CUCUCU…GGAGGGAAAAGUUAUCAGGCAUGCACCUGGUAGCUAGUCUUUAAACCAAUAGAUUGCAUCGGUUUAAAAGGCAAGACCGUCAAAUUGCGGGAAAGGGGUCAACAGCCGUUCAGUACCAAGUCUCAGGGGAAACUUUGAGAUGGCCUUGCAAAGGGUAUGGUAAUAAGCUGACGGACAUGGUCCUAACCACGCAGCCAAGUCCUAAGUCAACAGAUCUUCUGUUGAUAUGGAUGCAGUUCACAGACUAAAUGUCGGUCGGGGAAGAUGUAUUCUUCUCAUAAGAUAUAGUCGGACCUCUCCUUAAUGGGAGCUAGCGGAUGAAGUGAUGCAACACUGGAGCCGCUGGGAACUAAUUUGUAUGCGAAAGUAUAUUGAUUAGUUUUGGAGUACUCGUGGUCG
Summed up: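 Six replicate transformations of E. coli BL21(DE3) with a pET-22b(+) library were grown overnight at 37°C or 30°C. The library randomised all eight P1ex-region intron nucleotides, the intron lying in the knt kanamycin-resistance gene, and plates were LB agar with or without 25 μg/mL kanamycin plus 100 μg/mL carbenicillin, 50 μM IPTG and 0.2% rhamnose. Pooled colonies were amplicon-sequenced on an Illumina HiSeq 2500, and fitness is the DiMSum error-weighted combination of wild-type-normalised replicate fold changes, kanamycin versus none.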

± gives the uncertainty stated by the source.

For ACAAAGCAAUAUUACGUCCU, the “self-splicing fitness (ln)” value runs as follows: (30 °C) -0.488 ± 0.07; (37 °C) -0.399 ± 0.08.

Turning to ACACAGCAAUAUUACGAAAA, the “self-splicing fitness (ln)” value runs as follows: (30 °C) -3.2 ± 0.19; (37 °C) -3 ± 0.19.

ACACAGCAAUAUUACGAAAC: the “self-splicing fitness (ln)” value was -3.02 ± 0.23 (30 °C) and -1.82 ± 0.22 (37 °C).

Turning to ACACAGCAAUAUUACGACUU, the “self-splicing fitness (ln)” value is -0.131 ± 0.043 (30 °C) and 0.0165 ± 0.056 (37 °C).

For ACACAGCAAUAUUACGAGAA, the “self-splicing fitness (ln)” value is -3.53 ± 0.37 (30 °C) and -2.54 ± 0.24 (37 °C).

Turning to ACACAGCAAUAUUACGAUGA, the “self-splicing fitness (ln)” value reads like this: (30 °C) -0.664 ± 0.048; (37 °C) -0.444 ± 0.057.

For ACACAGCAAUAUUACGAUUG, the “self-splicing fitness (ln)” value runs as follows: (30 °C) -2.22 ± 0.084; (37 °C) -0.711 ± 0.09.

Take ACACAGCAAUAUUACGCAAA: the “self-splicing fitness (ln)” value reads like this: (30 °C) -3.2 ± 0.11; (37 °C) -1.85 ± 0.092.

On to ACACAGCAAUAUUACGCCAA, for which the “self-splicing fitness (ln)” value was -2.36 ± 0.11 (30 °C) and -2.54 ± 0.14 (37 °C).

With ACACAGCAAUAUUACGCCAU, the “self-splicing fitness (ln)” value is -3.18 ± 0.21 (30 °C) and -1.85 ± 0.15 (37 °C).

Take ACACAGCAAUAUUACGCCGG: the “self-splicing fitness (ln)” value was -1.36 ± 0.09 (30 °C) and -0.466 ± 0.11 (37 °C).

For ACACAGCAAUAUUACGCGCA, the “self-splicing fitness (ln)” value (30 °C) is -0.103 ± 0.064 and the “self-splicing fitness (ln)” value (37 °C) is 0.225 ± 0.079.

Turning to ACACAGCAAUAUUACGCUCC, the “self-splicing fitness (ln)” value was -1.47 ± 0.078 (30 °C) and -0.566 ± 0.1 (37 °C).

Regarding ACACAGCAAUAUUACGCUUU, the “self-splicing fitness (ln)” value runs as follows: (30 °C) -2.75 ± 0.14; (37 °C) -1.51 ± 0.098.

With ACACAGCAAUAUUACGGCAC, the “self-splicing fitness (ln)” value is, setting by setting: (30 °C) -1.6 ± 0.066; (37 °C) -0.725 ± 0.084.

As to ACACAGCAAUAUUACGGGUC, the “self-splicing fitness (ln)” value by setting is: (30 °C) -4.34 ± 0.21; (37 °C) -2.17 ± 0.13.

Consider ACACAGCAAUAUUACGUAAG, for which the “self-splicing fitness (ln)” value is -2.06 ± 0.062 (30 °C) and -0.736 ± 0.069 (37 °C).

Take ACACAGCAAUAUUACGUAGG: the “self-splicing fitness (ln)” value reads like this: (30 °C) -2.48 ± 0.087; (37 °C) -1.64 ± 0.09.

Regarding ACACAGCAAUAUUACGUGUU, the “self-splicing fitness (ln)” value was -3.16 ± 0.073 (30 °C) and -3.62 ± 0.16 (37 °C).

Regarding ACACAGCAAUAUUACGUUAG, the “self-splicing fitness (ln)” value is, setting by setting: (30 °C) -3.46 ± 0.094; (37 °C) -2.44 ± 0.1.

Turning to ACACAGCAAUAUUACGUUGG, the “self-splicing fitness (ln)” value (30 °C) was -3 ± 0.089 and the “self-splicing fitness (ln)” value (37 °C) is -1.2 ± 0.081.

With ACACAGCAAUAUUACGUUGU, the “self-splicing fitness (ln)” value reads like this: (30 °C) -2.31 ± 0.09; (37 °C) -2.6 ± 0.14.

With ACAGAGCAAUAUUACGAACC, the “self-splicing fitness (ln)” value (37 °C) is -1.67 ± 0.49.

As for ACAGAGCAAUAUUACGAAUA, the “self-splicing fitness (ln)” value is -3.45 ± 0.32 (30 °C) and -2.2 ± 0.35 (37 °C).

Consider ACAGAGCAAUAUUACGACAG, for which the “self-splicing fitness (ln)” value (30 °C) is -3.72 ± 0.31 and the “self-splicing fitness (ln)” value (37 °C) was -1.95 ± 0.2.

As to ACAGAGCAAUAUUACGAUUA, the “self-splicing fitness (ln)” value was -3.25 ± 0.23 (30 °C) and -2.38 ± 0.26 (37 °C).

For the sequence ACAGAGCAAUAUUACGCAUG, the “self-splicing fitness (ln)” value by setting is: (30 °C) -2.9 ± 0.12; (37 °C) -1.95 ± 0.13.

Regarding ACAGAGCAAUAUUACGCCGG, the “self-splicing fitness (ln)” value is -2.81 ± 0.25 (30 °C) and -2.4 ± 0.33 (37 °C).

As for ACAGAGCAAUAUUACGCUCA, the “self-splicing fitness (ln)” value (30 °C) is -1.29 ± 0.2 and the “self-splicing fitness (ln)” value (37 °C) is -1.26 ± 0.18.

Take ACAGAGCAAUAUUACGGCAC: for the setting “37 °C”, the “self-splicing fitness (ln)” value is -2.62 ± 0.44.

Consider ACAGAGCAAUAUUACGGCGG, for which the “self-splicing fitness (ln)” value is, setting by setting: (30 °C) -3.41 ± 0.26; (37 °C) -1.98 ± 0.24.

Regarding ACAGAGCAAUAUUACGGGUU, the “self-splicing fitness (ln)” value runs as follows: (30 °C) -2.43 ± 0.1; (37 °C) -3.08 ± 0.18.

ACAGAGCAAUAUUACGGUAC: the “self-splicing fitness (ln)” value runs as follows: (30 °C) -3.57 ± 0.2; (37 °C) -3.02 ± 0.25.

Consider ACAGAGCAAUAUUACGUCGA, for which the “self-splicing fitness (ln)” value is -3.1 ± 0.3 (30 °C) and -2.73 ± 0.34 (37 °C).

With ACAGAGCAAUAUUACGUGAC, the “self-splicing fitness (ln)” value runs as follows: (30 °C) -3.76 ± 0.24; (37 °C) -1.6 ± 0.17.

Turning to ACAGAGCAAUAUUACGUGUG, the “self-splicing fitness (ln)” value (30 °C) was -2.65 ± 0.12 and the “self-splicing fitness (ln)” value (37 °C) is -2.99 ± 0.14.

Consider ACAGAGCAAUAUUACGUUAA, for which the “self-splicing fitness (ln)” value is -3.15 ± 0.15 (30 °C) and -2.21 ± 0.21 (37 °C).

Consider ACAGAGCAAUAUUACGUUAC, for which the “self-splicing fitness (ln)” value was -3 ± 0.15 (30 °C) and -2.96 ± 0.25 (37 °C).
